US20190169249A1 (SHATTUCK LABS, published 2019)
Each block holds one binder with its values, some of them ahead of it.

What was measured:
[1] = biological target: T1, CSF1R-Fc (commercially available, single-sided control protein) (UniProt P07333 20-512, limits assumed); assay: SPR, BioRad ProteOn XPR 360
T1 construct: Recombinant control protein; not shown: Fc part of the bought protein; not described
Description: The binding affinity of the different domains of the hCSF1R-Fc-CD40L chimeric protein was measured by the surface plasmon resonance (SPR) using the BioRad ProteOn XPR 360 system. Specifically, the affinity of the chimeric protein for human CSF1 and CD40 was determined and compared to recombinant control proteins, and the results are shown in the Table below: […]

[2] = biological target: T2, murine CD40 overexpressed on CHO-K1 cells (CHOK1/CD40) (murine, UniProt P27512 20-289); assay: flow cytometry on CHOK1/CD40 cells; CHOK1/CD40 cells, flow cytometry
T2 construct: whole, on cells; also called mCD40
T2 sequence (looked up): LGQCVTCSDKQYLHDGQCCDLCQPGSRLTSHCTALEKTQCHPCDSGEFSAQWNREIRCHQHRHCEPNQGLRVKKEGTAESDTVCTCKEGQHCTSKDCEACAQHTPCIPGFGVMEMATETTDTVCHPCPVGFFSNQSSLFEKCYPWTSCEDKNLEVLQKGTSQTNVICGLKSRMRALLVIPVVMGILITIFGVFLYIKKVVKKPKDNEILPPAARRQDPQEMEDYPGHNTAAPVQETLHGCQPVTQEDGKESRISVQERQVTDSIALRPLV
Description: For cell binding assays, immortalized cell lines were engineered to stably express CD40 (CHOK1/CD40). Increasing concentrations of the murine CSF1R-Fc-CD40L chimeric protein were incubated with the over-expressing (CHOK1/CD40) cell line for 2 hours. Cells were collected, washed, and stained with antibodies for the detection of chimeric protein binding by flow cytometry.
As a negative control, there was no detectable binding to the parental (non-CD40 expressing) CHOK1 cell line.

CD40-His = biological target: T3, CD40-His (human, UniProt P25942 21-193); assay: bio-layer interferometry (Octet); ligand column: hCD40-his
T3 construct: Octet (biolayer interferometry) reagent; also called recombinant human CD40; not shown: His tag
T3 sequence (P25942 21-193 limits assumed): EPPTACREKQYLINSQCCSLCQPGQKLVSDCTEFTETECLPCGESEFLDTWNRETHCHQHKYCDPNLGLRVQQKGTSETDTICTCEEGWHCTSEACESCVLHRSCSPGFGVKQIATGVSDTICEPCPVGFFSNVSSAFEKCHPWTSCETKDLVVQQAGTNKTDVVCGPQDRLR

T1 sequence (P07333 20-512 limits assumed): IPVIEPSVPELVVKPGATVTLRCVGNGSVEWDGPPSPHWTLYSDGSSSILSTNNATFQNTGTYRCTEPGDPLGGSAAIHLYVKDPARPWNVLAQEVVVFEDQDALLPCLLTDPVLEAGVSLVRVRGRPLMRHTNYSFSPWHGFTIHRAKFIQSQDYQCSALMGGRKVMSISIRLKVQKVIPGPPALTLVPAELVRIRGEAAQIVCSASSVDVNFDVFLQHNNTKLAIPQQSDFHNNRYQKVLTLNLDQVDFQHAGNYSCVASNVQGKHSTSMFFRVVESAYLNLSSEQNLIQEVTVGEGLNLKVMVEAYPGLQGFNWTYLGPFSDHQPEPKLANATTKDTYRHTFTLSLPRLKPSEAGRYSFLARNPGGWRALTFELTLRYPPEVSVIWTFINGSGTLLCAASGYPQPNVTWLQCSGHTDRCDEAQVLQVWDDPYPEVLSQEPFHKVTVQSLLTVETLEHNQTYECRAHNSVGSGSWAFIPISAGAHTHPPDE

Kd [1]: 0.275 nM
koff [1]: 0.000335 s⁻¹
kon [1]: 1.22e+06 M⁻¹ s⁻¹
B1: recombinant human CSF1 protein (ligand, UniProt P09603 33-190, looked up)
chain: EEVSEYCSHMIGSGHLQSLQRLIDSQMETSCQITFEFVDQEQLKDPVCYLKKAFLLVQDIMEDTMRFRDNTPNAIAIVQLQELSLRLKSCFTKDYEEHDKACVRTFYETPLQLLEKVKNVFNETKNLLDKDWNIFSKNCNNSFAECSSQDVVTKPDCN
notes: the construct is not described

EC50 [2]: 91.1 nM
B2: murine CSF1R-Fc-CD40L chimeric protein (Fc fusion)
chain (part 1 of 2): APVIEPSGPELVVEPGETVTLRCVSNGSVEWDGPISPYWTLDPESPGSTLTTRNATFKNTGTYRCTELEDPMAGSTTIHLYVKDPAHSWNLLAQEVTVVEGQEAVLPCLITDPALKDSVSLMREGGRQVLRKTVYFFSPWRGFIIRKAKVLDSNTYVCKTMVNGRESTSTGIWLKVNRVHPEPPQIKLEPSKLVRIRGEAAQIVCSATNAEVGFNVILKRGDTKLEIPLNSDFQDNYYKKVRALSLNAVDFQDAGIYSCVASNDVGTRTATMNFQVVESAYLNLTSEQSLLQEVSVGDSLILTVHADAYPSIQHYNWTYLGPFFEDQRKLEFITQRAIYRYTFKLFLNRVKASEAGQYFLMAQNKAGWNNLTFELTLRYPPEVSVTWMPVNGSDVLFCDVSGYPQPSVTWMECRGHTDRCDEAQALQVWNDTHPEVLSQKPFDKVIIQSQLPIGTLKHNMTYFCKTHNSVGNSSQYFRAVSLGQSKQLPDESLFTP
chain (part 2 of 2): HRRLDKVEEEVNLHEDFVFIKKLKRCNKGEGSLSLLNCEEMRRQFEDLVKDITLNKEEKKENSFEMQRGDEDPQIAAHVVSEANSNAASVLQWAKKGYYTMKSNLVMLENGKQLTVKREGLYYVYTQVTFCSNREPSSQRPFIVGLWLKPSSGSERILLKAANTHSSSQLCEQQSVHLGGVFELQAGASVFVNVTEASQVIHRVGFSSFGLLKL
notes: 'constructed as described above in the Detailed Description and in U.S. 62/464,002'; also called mCSF1R-Fc-CD40L; mCD115-Fc-CD40L; not shown: Fc linker

Kd (CD40-His): 2.42 nM
B3: CD40L-Fc (commercially available, single-sided control protein) (Fc fusion, UniProt P29965 113-261, looked up)
chain: MQKGDQNPQIAAHVISEASSKTTSVLQWAEKGYYTMSNNLVTLENGKQLTVKRQGLYYIYAQVTFCSNREASSQAPFIASLCLKSPGRFERILLRAANTHSSAKPCGQQSIHLGGVFELQPGASVFVNVTDPSQVSHGTGFTSFGLLKL
notes: Recombinant control protein; not shown: Fc part of the bought protein
